In IntAct's records for PubMed 22453338:

B1: Cyclin-D1-binding protein 1 (Homo sapiens), O95273 (parent)
chain: MASATAPAAAVPTLASPLEQLRHLAEELRLLLPRVRVGEAQETTEEFNREMFWRRLNEAAVTVSREATTLTIVFSQLPLPSPQETQKFCEQVHAAIKAFIAVYYLLPKDQGITLRKLVRGATLDIVDGMAQLMEVLSVTPTQSPENNDLISYNSVWVACQQMPQIPRDNKAAALLMLTKNVDFVKDAHEEMEQAVEECDPYSGLLNDTEENNSDNHNHEDDVLGFPSNQDLYWSEDDQELIIPCLALVRASKACLKKIRMLVAENGKKDQVAQLDDIVDISDEISPSVDDLALSIYPPMCHLTVRINSAKLVSVLKKALEITKASHVTPQPEDSWIPLLINAIDHCMNRIKELTQSELEL
partner: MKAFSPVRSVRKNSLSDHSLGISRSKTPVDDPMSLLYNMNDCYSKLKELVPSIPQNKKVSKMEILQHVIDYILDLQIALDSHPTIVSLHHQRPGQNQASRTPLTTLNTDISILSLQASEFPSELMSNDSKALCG
B2: Cyclin-D1-binding protein 1 (Homo sapiens), O95273 (parent)
chain: B1 chain

Variants of: B1
Conditions: with id2_human ID2, Q02363

Row | effect of a mutation on the interaction | Variant
1 | increasing interaction | V271F

Variants of: B1
Conditions: with id2_human ID2, Q02363
Remark: another data set of the same source

Row | effect of a mutation on the interaction | Variant
2 | increasing interaction | N169E

Variants of: B1
Conditions: with id2_human ID2, Q02363
Remark: another data set of the same source

Row | effect of a mutation on the interaction | Variant
3 | increasing interaction | P166Y

Variants of: B1
Conditions: with id2_human ID2, Q02363
Remark: another data set of the same source

Row | effect of a mutation on the interaction | Variant
4 | increasing interaction | V278R

Variants of: B2
Conditions: with ndf1_mouse Neurod1, Q60867
Chain of ndf1_mouse Neurod1, Q60867 (Q60867 whole entry): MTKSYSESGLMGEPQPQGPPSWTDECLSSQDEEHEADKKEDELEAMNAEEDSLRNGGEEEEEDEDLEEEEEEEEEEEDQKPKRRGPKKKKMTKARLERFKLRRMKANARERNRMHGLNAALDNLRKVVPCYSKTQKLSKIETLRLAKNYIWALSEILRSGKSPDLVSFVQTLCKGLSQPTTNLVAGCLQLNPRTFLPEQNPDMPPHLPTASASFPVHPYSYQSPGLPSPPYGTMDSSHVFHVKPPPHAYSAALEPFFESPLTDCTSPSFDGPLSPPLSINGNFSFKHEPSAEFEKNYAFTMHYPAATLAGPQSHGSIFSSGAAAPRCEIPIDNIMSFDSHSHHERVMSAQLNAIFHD

Row | effect of a mutation on the interaction | Variant
5 | increasing interaction | P166Y

Variants of: B2
Conditions: with ndf1_mouse Neurod1, Q60867
Remark: another data set of the same source

Row | effect of a mutation on the interaction | Variant
6 | increasing interaction | V271F

Variants of: B2
Conditions: with ndf1_mouse Neurod1, Q60867
Remark: another data set of the same source

Row | effect of a mutation on the interaction | Variant
7 | increasing interaction | V278R

Variants of: B2
Conditions: with ndf1_mouse Neurod1, Q60867
Remark: another data set of the same source

Row | effect of a mutation on the interaction | Variant
8 | increasing interaction | N169E
